Source: patent publication US20180186897A1 (INSTITUTE FOR RESEARCH IN BIOMEDICINE, published 2018)

T1: RIFIN PF3D7_1400600 (Plasmodium falciparum)
T1 construct: also called specific RIFIN
T1 chain: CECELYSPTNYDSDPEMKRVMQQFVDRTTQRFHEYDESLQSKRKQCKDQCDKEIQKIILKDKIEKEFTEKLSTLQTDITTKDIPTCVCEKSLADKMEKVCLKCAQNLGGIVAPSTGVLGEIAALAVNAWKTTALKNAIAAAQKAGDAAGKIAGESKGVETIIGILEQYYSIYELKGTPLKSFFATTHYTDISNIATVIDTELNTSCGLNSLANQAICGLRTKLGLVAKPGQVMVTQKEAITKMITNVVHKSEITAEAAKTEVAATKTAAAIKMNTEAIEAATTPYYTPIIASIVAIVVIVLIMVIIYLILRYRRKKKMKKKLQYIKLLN


Experiments:
[1] = biological target: T1, RIFIN PF3D7_1400600; assay: immunoprecipitation with MGD21, LC-MS
[2] = biological target: erythrocytes infected with P. falciparum field isolate 10936; assay: flow cytometry, staining of IEs
[3] = biological target: erythrocytes infected with P. falciparum field isolate 10975; assay: flow cytometry, staining of IEs
[4] = biological target: erythrocytes infected with P. falciparum field isolate 11014; assay: flow cytometry, staining of IEs
[5] = biological target: erythrocytes infected with P. falciparum field isolate 11019; assay: flow cytometry, staining of IEs
[6] = biological target: erythrocytes infected with P. falciparum field isolate 9106; assay: flow cytometry, staining of IEs
[7] = biological target: erythrocytes infected with P. falciparum field isolate 9215; assay: flow cytometry, staining of IEs
[8] = biological target: erythrocytes infected with P. falciparum field isolate 9605; assay: flow cytometry, staining of IEs
[9] = biological target: erythrocytes infected with P. falciparum field isolate 9775; assay: flow cytometry, staining of IEs

| Binder | log2 fold change (enrichment in MGD21 immunoprecipitates of 3D7-MGD21+ against 3D7-MGD21- IEs) [1] [log2 fold change] | % parasite recognition [2] [%] | % parasite recognition [3] [%] | % parasite recognition [4] [%] | % parasite recognition [5] [%] | % parasite recognition [6] [%] | % parasite recognition [7] [%] | % parasite recognition [8] [%] | % parasite recognition [9] [%] |
| --- | --- | --- | --- | --- | --- | --- | --- | --- | --- |
| MGD21 (antibody, IgG1, Human mAb of donor D with LAIR-1 exon+intron insert in CDRH3; also called MGD21 ANTIBODY; mAb MGD21) VH: EVQLVETGPGLMKTSGTLSLTCAVSGDYVNTNRRWSWVRQAPGKGLEWIGEVHQSGRTNYNPSLKSRVTISVDKSKNQFSLKVDSVTAADTAVYYCARASPLKSQRDTDLPRPSISAEPGTVIPLGSHVTFVCRGPVGVQTFRLERERNYLYSDTEDVSQTSPSESEARFRIDSVNAGNAGLFRCIYYKSRKWSEQSDYLELVVKGEDVTWALSQSQDDPRACPQGELPISTDIYYVDVWGNGTTVTVSS VL: AIRMTQSPSSLSASPGDKVSITCRASQHINDSLAWFQQRPGKAPKLLIYGASNLHSGVPSRFSGTGSGTDFTLTITGLQSEDFATYFCQQCNCFPPDFGQGTRLEIK | > 2 | – | – | – | – | – | – | – | – |
| MGC34 (antibody) VH: EVQLVESGGGLVQPGGSLRLSCEASGFTFSSYWMSWVRQAPGKGLEWVANINQDGSQKDYVDSVKGRFTISRDTAKNSLYLQMNSLRAEDTAVYYCARERLCTDDSHMHGEEDLPRPSISAEPGTVIPLGSHVTFVCRGPVGIHTFRLERESRSLYTETEDVTQVSPSESEARFRIESVTEGNAGLYRCVYYKPPKWSEQSDYLELLVKGEDVTRALFTHCGGDGKESDYHMDVWGKGTTVTVSS VL: QTVVTQEPSLTVSPGGTVTLTCASSTGAVTSGYYPSWFHQKPGQPVRALIYSTSKTHSWTPARFSGSLLGGKAALTLSNVQPEDEADYYCLLYYGGPQPWVFGGGTKLTVQ | – | 11.3 | 15.2 | 11.4 | 34.1 | 6.8 | 27.1 | 23.7 | 17.5 |
